Measurements published in patent publication US20090054337A1.

Biological target: natriuretic peptide receptor-B (NPR-B) on human aortic endothelial cells (human) (UniProt P20594)
Experiment: cell-based or functional assay

Chain of UniProt P20594 (P20594 23-1047): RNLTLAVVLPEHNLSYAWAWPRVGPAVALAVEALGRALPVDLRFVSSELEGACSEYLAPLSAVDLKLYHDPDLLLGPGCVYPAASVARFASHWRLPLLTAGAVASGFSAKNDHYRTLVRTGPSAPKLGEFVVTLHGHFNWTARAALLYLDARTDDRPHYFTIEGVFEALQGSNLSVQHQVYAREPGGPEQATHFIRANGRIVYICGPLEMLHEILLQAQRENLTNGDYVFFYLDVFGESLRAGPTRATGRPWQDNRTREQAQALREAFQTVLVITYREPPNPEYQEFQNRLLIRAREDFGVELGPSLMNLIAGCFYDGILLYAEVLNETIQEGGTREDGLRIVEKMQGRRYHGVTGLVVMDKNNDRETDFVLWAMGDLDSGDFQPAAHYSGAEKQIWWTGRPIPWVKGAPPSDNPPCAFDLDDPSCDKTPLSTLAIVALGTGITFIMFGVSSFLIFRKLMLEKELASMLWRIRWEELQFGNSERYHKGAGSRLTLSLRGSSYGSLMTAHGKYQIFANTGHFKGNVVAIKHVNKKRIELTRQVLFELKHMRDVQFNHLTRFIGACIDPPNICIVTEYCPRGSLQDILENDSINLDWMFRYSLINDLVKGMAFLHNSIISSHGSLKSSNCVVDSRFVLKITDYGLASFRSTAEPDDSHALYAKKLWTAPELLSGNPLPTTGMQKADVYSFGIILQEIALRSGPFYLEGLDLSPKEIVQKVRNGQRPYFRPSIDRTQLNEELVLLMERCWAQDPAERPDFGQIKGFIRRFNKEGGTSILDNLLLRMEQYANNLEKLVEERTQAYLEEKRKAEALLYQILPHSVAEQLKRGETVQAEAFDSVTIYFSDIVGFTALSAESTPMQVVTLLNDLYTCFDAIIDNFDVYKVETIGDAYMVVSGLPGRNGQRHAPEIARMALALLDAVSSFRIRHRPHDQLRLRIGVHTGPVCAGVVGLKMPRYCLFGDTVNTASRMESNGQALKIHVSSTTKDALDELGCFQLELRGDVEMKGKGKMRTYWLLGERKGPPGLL

## human CNP (from UniProt P23582 74-126) (peptide)
  cGMP in HAEC with 10^-6 M CNP in the presence of the NPR-B antibody (1:100): 0.08 pmol/mL
  cGMP in HAEC with 10^-6 M CNP, no antibody: 0.17 pmol/mL
